Data: patent publication US20090191645A1, “COMPOUNDS AND METHODS FOR MODULATING INTEGRIN ACTIVITY” (Washington University in St. Louis, priority 2008, published 2009)
Entries after “also recorded” stand apart in the source; their conditions may differ.

Legend:
[1] = target: T1, αIIbβ3 integrin (Homo sapiens, UniProt P05106+P08514); assay: LIBS antibody binding to human platelets (flow cytometry); assay type: cell-based; conditions: for LIBS binding to platelets (3 LIBS mAbs): platelets with PGE1 / kept on ice; for D3 LIBS antibody binding to platelets: 100 μM clasp peptide in the presence of RGD
T1 construct: Platelets and megakaryocytes are the only cells to express αIIbβ3 integrin; endogenous in cells; host or cells: washed human platelets from a healthy donor
Protocol: Preparation of Fresh Platelets—Collection of human blood was performed under an approved protocol of the Washington University School of Medicine Human Studies Committee. 30 mL of blood was drawn from a healthy donor into 3% sodium citrate, and centrifuged at 200×g for 10 min. at room temp. to yield platelet-rich plasma (PRP). The PRP was treated with 1 μg/ml prostaglandin E1 (PGE-1) and centrifuged at 500×g for 5 min. The platelet pellet was resuspended in Tyrode's solution (137 mM NaCl, 2.7 mM KCl, 2 mM CaCl2, 1 mM MgCl2, 3.3 mM NaH2PO4, 5.5 mM glucose, 20 mM HEPES, pH 7.4 with 1 mg/ml BSA and 1 μg/ml PGE-1. The platelet suspension was stored on ice for 1 to 48 hr or treated as described below.
(§1) Flow Cytometry—Binding of anti-β3 mAb AP3 and anti-LIBS mAbs LIBS1, LIBS6 and D3 was quantified using a Coulter EPICS flow cytometer. 10^6 cells were washed and resuspended in 100 μl of FACS buffer (1% BSA, 2 mM MgCl2, in PBS) and incubated on ice for 30 minutes. Cells were washed and resuspended in buffer (PBS+2 mM MgCl2 or 1 mM each CaCl2 and MgCl2) along with combinations of 0-1 mM GRGDSP (SEQ ID NO: 19) with 500 μM MnCl2, 100 μM P2483, 100 μM P2484, and 100 μM P2485 or control peptide. Cells were then incubated on ice for 30 minutes. Cells were washed and incubated in 100 μl of buffer (PBS+2 mM MgCl2) containing donkey anti-mouse IgG-FITC at a 1:100 dilution for an additional 30 min. After washing, the cells were diluted to 0.5 ml and analyzed by flow cytometry. Data was analyzed using WinMDI software.
Platelets and megakaryocytes are the only cells to express αIIbβ3 integrin, and thus platelets offer a unique system in which to test the effects of the clasp peptides on β3 integrin activation. They also provide the opportunity to compare the activation response to the clasp peptides of αIIbβ3 vs αvβ3. Several G protein coupled receptors (e.g. those for ADP, thromboxane and thrombin) on platelets can rapidly activate αIIbβ3 via inside-out signaling (2). To eliminate this route of activation platelets were incubated with PGE1, which elevates cyclic AMP levels via Gs, and in some experiments also used apyrase to block activation by leaked ADP (39). In addition, platelets were kept on ice for as long as 24 to 48 hours to ensure metabolic inactivity. While short-term exposure to cold can activate platelets, long term exposure makes platelets refractory to activation (40).

[2] = target: T2, αvβ3 integrin (Homo sapiens, UniProt P05106+P06756); assay: LIBS antibody binding to αvβ3 on K562 cells (flow cytometry); assay type: cell-based; conditions: K562 cells expressing αvβ3; for LIBS1, LIBS6 or D3 antibody binding (fluorescence): 1 mM GRGDSP vs LIBS antibody with no RGD peptide; for LIBS1 antibody binding: 100 μM peptide, in the presence of 1 mM RGD peptide, absence of Mn++
T2 construct: Full length cDNA clones of human αv and β3 integrin subunits were provided by Dr. Scott Blystone; expressed in transfected cells; host or cells: human K562 erythroleukemia cells (ATCC CCL-243), stably expressing αvβ3
T2 sequence (P06756 31-889 limits assumed): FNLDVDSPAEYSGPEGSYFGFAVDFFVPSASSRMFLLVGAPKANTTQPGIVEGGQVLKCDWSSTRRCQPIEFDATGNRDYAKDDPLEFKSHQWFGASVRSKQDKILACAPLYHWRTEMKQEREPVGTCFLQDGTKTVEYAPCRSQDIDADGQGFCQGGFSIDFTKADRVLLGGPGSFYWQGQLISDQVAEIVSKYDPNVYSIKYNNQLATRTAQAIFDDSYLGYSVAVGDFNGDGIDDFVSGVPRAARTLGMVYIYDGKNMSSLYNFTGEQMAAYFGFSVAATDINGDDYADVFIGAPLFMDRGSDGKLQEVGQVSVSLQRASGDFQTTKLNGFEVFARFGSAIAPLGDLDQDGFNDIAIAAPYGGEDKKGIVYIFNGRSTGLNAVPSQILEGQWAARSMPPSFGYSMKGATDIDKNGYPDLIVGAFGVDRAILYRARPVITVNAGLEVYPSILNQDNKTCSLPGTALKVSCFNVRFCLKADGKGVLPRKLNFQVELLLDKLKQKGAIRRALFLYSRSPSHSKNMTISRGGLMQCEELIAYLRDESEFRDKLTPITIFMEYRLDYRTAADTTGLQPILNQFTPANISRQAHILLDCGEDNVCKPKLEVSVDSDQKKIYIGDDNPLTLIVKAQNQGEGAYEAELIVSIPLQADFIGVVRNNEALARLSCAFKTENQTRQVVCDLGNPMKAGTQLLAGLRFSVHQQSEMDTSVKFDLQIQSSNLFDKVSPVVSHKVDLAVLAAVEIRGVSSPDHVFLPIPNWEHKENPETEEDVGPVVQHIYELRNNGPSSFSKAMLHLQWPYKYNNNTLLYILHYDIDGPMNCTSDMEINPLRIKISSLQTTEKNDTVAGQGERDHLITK
T2 sequence (P06756 891-1048 limits assumed): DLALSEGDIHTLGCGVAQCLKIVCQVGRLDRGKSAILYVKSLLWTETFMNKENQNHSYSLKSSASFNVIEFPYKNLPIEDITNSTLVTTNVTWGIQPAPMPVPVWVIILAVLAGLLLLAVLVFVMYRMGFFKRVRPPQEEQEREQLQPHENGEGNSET
T2 sequence (P05106 27-788): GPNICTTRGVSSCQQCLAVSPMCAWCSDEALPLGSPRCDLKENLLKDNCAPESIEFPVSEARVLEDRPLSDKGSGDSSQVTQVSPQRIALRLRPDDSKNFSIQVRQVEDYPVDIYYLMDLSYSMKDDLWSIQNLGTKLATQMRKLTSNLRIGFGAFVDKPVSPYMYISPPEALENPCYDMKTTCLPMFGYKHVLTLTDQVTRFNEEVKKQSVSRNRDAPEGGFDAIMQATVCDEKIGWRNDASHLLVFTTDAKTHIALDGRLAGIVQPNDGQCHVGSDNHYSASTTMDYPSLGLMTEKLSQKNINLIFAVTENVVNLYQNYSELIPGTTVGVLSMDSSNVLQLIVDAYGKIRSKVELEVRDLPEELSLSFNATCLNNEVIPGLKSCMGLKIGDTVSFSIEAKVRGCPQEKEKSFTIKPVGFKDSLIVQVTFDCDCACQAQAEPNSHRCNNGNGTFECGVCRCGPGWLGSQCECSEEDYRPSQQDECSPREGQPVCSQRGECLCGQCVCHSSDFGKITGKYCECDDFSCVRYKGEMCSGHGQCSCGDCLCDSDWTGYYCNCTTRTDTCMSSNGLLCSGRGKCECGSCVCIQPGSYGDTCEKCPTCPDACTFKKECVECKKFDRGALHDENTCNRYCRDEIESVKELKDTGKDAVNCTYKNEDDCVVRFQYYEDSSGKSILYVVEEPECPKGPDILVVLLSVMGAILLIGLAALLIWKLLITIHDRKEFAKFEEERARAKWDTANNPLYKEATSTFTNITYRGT
Protocol: as §1
To more directly monitor changes in integrin conformation, a series of antibodies (mAbs) were used that react with ligand-bound or activated states of β3 integrins. These LIBS mAbs used here recognize epitopes at three different sites within the stalk region of the β3 subunit that are masked in the “off” state and only become accessible when the integrin is “opened up” in the ligand-binding, activated conformation (37). When K562 cells transfected to express αvβ3 integrin were incubated with the LIBS1 or LIBS6 mAbs alone (dotted histograms in FIG. 2), little antibody binding above isotype control mAb or secondary mAb alone was detected. D3 mAb appeared to induce some activation of the integrin since its binding to αvβ3 (FIG. 2, dotted line) was several fold above that of controls. GRGDSP (SEQ ID NO: 19) peptide augments LIBS binding by stabilizing active conformations of the β3 integrin. […] The effect of the clasp peptides on the binding of each LIBS mAb was determined in the presence of 1 mM RGD peptide, but in the absence of Mn^++.

[3] = system: C32 melanoma cells; assay: C32 cell adhesion and spreading on vitronectin; assay type: cell-based, human; conditions: Vn-coated wells
Protocol: Cell Spreading Assay—Spreading of C32 cells on Vn was performed as described (31) in 24-well tissue culture plates coated with 0.5 μg/ml Vn and blocked with 1% BSA/PBS for 2 hrs at room temperature. C32 cells were plated in HBSS with 2 mM CaCl2 and 2 mM MgCl2 in the presence of 2 mM MnSO4, and indicated amounts of GRGDSP (SEQ ID NO: 19), P2483, P2484, or 4N1K. Cells were allowed to spread for 30 minutes at 37° C., after which the cells were fixed, stained, and photographed.
As an initial approach to testing the function of the putative clasp region of β3 integrins, synthetic peptides were used to mimic the α and β sides of the clasp. It was reasoned that αIIbβ3 is likely to be held in the off state more securely than αvβ3, and thus the αIIb clasp sequence was chosen for these experiments (Table 1). To evaluate the effects of the putative clasp peptides on αvβ3 activation in live cells, adhesion and spreading assays using C32 melanoma cells were performed. […] Not until αvβ3 is activated, e.g. via Mn^++ or CD47 stimulation, does αvβ3-dependent spreading occur (35). The assay was performed in Ca^++/Mg^++ which supports integrin activity, and we used Mn^++ activation of αvβ3 as a positive control (6). The putative clasp peptides were incubated with cells added to the Vn-coated wells and after 30 min at 37° cell attachment and spreading were assessed (FIG. 1).

[4] = target: wild-type human αvβ3 integrin on cells (human, UniProt P06756 31-1048; P05106 27-788); assay: cell-based or functional assay
Chain of wild-type human αvβ3 integrin on cells (P06756 31-1048, chain 1 of 2): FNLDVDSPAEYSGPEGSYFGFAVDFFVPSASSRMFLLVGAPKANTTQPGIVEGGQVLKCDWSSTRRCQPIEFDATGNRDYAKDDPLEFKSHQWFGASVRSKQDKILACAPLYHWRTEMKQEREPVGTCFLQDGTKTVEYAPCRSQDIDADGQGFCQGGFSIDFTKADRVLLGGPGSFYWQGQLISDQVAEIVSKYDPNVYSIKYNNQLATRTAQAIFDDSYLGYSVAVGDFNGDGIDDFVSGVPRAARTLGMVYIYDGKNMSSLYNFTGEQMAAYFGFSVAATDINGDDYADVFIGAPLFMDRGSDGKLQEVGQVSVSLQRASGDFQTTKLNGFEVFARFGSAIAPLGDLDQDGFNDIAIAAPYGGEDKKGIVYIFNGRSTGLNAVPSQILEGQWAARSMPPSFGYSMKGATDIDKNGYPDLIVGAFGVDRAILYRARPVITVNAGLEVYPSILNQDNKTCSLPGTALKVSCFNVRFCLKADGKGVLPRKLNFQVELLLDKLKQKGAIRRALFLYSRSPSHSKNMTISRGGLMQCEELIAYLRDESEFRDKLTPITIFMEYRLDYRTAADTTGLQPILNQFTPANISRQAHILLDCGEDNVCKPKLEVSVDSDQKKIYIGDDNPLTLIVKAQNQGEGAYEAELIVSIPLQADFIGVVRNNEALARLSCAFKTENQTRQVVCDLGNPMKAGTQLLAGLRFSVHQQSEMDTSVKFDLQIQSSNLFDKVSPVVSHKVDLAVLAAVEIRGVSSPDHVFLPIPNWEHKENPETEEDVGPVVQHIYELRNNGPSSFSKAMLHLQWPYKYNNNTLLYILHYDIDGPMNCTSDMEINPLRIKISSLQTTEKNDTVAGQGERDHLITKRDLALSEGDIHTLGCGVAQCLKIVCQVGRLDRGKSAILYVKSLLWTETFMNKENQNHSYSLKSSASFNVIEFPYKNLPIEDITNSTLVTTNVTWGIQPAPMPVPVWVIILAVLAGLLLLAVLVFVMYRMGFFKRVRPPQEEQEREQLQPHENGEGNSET
Chain of wild-type human αvβ3 integrin on cells (P05106 27-788, chain 2 of 2): as the sequence (P05106 27-788) above

[5] = 100 μM clasp peptide, 30 min at 37°
[6] = 100 μM clasp peptide in the presence of 100 μM RGD, metabolically inactive human platelets

## Nc1ncnc2c1ncn2[C@@H]1O[C@H](COP(=O)(O)OP(=O)(O)O)[C@@H](O)[C@H]1O [ADP]
[1]; 50 μM ADP
  LIBS binding to platelets (3 LIBS mAbs): Neither of these agonists was able to increase LIBS binding

## [Mn+2] [Mn^++]
[2]; 0.5 mM Mn++ added to 1 mM GRGDSP
  LIBS antibody binding shift: further augmented
[3]; 2 mM MnSO4
  C32 cell adhesion to Vn: increased adhesion
  C32 cell spreading: enhanced spreading
  increase in number of spread cells: ca. 3 fold
[1]; 0.5 mM Mn++ added to 100 μM RGD, human platelets
  LIBS1 binding shift: further magnified

## GRGDSP
[2]
  LIBS1, LIBS6 or D3 antibody binding (fluorescence): increase in fluorescence
[2]; listed as RGD peptide
  LIBS1, LIBS6 or D3 antibody binding (fluorescence): increase in D3 binding
[3]; 0.5 mM GRGDSP
  C32 cell adhesion: effectively reduced cell adhesion; also recorded: nearly eliminated
  C32 cell spreading: nearly eliminated
[1]; 100 μM RGD, human platelets
  LIBS1 binding to αIIbβ3: sufficient to increase LIBS1 binding
  LIBS6 binding to αIIbβ3: not increased

## KMDASAAVS (listed as Homo sapiens) [control peptide]
[2]
  LIBS1 antibody binding: did not enhance LIBS1 binding

## KRFYVVMWKK (listed as Homo sapiens) [4N1K]
[3]; 50 μM 4N1K
  increase in number of spread cells: ~10 fold
[3]; 50 μM 4N1K, 30 min at 37°, no additions set at 100%
  C32 cell adhesion increased: 400%

## TTRTDTC (listed as Homo sapiens) [P2483]
[2]
  LIBS1 antibody binding: dramatically increased
[2]; listed as 2483
  LIBS1 antibody binding: greater than that promoted by RGD plus Mn^++
[3]; [5]
  C32 cell adhesion: stimulated cell adhesion to an extent comparable to 4N1K
[1]; [6]
  LIBS1 binding to αIIbβ3: unable to increase LIBS1 binding
[1]; 100 μM clasp peptide in the presence of 100 μM RGD, metabolically inactive human platelets, listed as β3 clasp peptide
  LIBS1 binding to αIIbβ3: failed to increase LIBS1 binding
[1]; human platelets
  D3 LIBS antibody binding to platelets: marginally stimulated D3 binding

## YMESRADRK (listed as Homo sapiens) [P2484]
[2]
  LIBS1 antibody binding: dramatically increased
[2]; listed as 2484
  LIBS1 antibody binding: greater than that promoted by RGD plus Mn^++
[3]; [5]
  C32 cell adhesion: stimulated cell adhesion to an extent comparable to 4N1K
[1]; [6]
  LIBS1 binding to αIIbβ3: increased LIBS1 binding
[1]; 100 μM clasp peptide in the presence of 100 μM RGD, metabolically inactive human platelets, listed as αIIb clasp peptide
  LIBS1 binding to αIIbβ3: increased binding well above that with RGD alone
[1]; human platelets
  D3 LIBS antibody binding to platelets: large rightward shifts

## thrombin receptor activating peptide [TRAP]
[1]; 10 μM TRAP
  LIBS binding to platelets (3 LIBS mAbs): Neither of these agonists was able to increase LIBS binding

## TTRTDTC [P2483 (β3 integrin clasp peptide, residues 561-567, TTRTDTC)]
[4]
  C32 cell spreading on vitronectin: 9 fold

## YMESRADRK [P2484 (αIIb integrin clasp peptide, residues 313-321, YMESRADRK)]
[4]
  C32 cell spreading on vitronectin: 78 fold
